Holding throughout (conditions): peptide exchange yield
One test has as its target HLA-A*01:01 (Homo sapiens, UniProt P04439, A114D/A174V/A182V/D101N/D185E/E176A/E190D/L180R/Q94H/R68K/S129P/T187R/V100A/V91M/W191G). As to the kind of experiment: MHC binding assay, UV-ligand exchange with β2m ELISA, HLA-A*01:01. An excerpt:
(§1) Candidate peptides for T cell based therapies according to the present invention were further tested for their MHC binding capacity (affinity). The individual peptide-MHC complexes were produced by UV-ligand exchange, where a UV-sensitive peptide is cleaved upon UV-irradiation, and exchanged with the peptide of interest as analyzed. Only peptide candidates that can effectively bind and stabilize the peptide-receptive MHC molecules prevent dissociation of the MHC complexes. To determine the yield of the exchange reaction, an ELISA was performed based on the detection of the light chain (β2m) of stabilized MHC complexes. The assay was performed as generally described in Rodenko et al. (Rodenko et al., 2006).
(§2) 96 well MAXISorp plates (NUNC) were coated over night with 2 ug/ml streptavidin in PBS at room temperature, washed 4× and blocked for 1 h at 37° C. in 2% BSA containing blocking buffer. Refolded HLA-A*02:01/MLA-001 monomers served as standards, covering the range of 15-500 ng/ml. Peptide-MHC monomers of the UV-exchange reaction were diluted 100-fold in blocking buffer. Samples were incubated for 1 h at 37° C., washed four times, incubated with 2 ug/ml HRP conjugated anti-β2m for 1 h at 37° C., washed again and detected with TMB solution that is stopped with […]. Absorption was measured at 450 nm. Candidate peptides that show a high exchange yield (preferably higher than 50%, most preferred higher than 75%) are generally preferred for a generation and production of antibodies or fragments thereof, and/or T cell receptors or fragments thereof, as they show sufficient avidity to the MHC molecules and prevent dissociation of the MHC complexes.
(An ELISA detects its analyte on a solid surface through an enzyme-linked reagent.)

The target in another test is HLA-A*02:01 (Homo sapiens, UniProt P04439, D140Y/D185E/D98H/E176V/E277Q/G131W/G231S/I119V/I121R/I166T/I218V/L300P/L318F/N151K/N90K/P208A/P217A/Q86G/Q94H/R138H/R169H/T345S). As to the kind of experiment: MHC binding assay, UV-ligand exchange with β2m ELISA, HLA-A*02:01.
Description: as §1, §2

The target of a further test is HLA-A*03:01 (Homo sapiens, UniProt P04439). Description: MHC binding assay, UV-ligand exchange with β2m ELISA, HLA-A*03:01.
Description: as §1, §2

“190 (HVDQDLTTY; listed as Homo sapiens) [compound 190]”: the Peptide exchange entry with HLA-A*01:01 is recorded as ““++” (>20% = ++)”.

Take “1 (LTEGHSGNYY; listed as Homo sapiens) [compound 1]”: in the test with HLA-A*01:01, the Peptide exchange result is listed as ““++++” (>75% = ++++)”.

For “26 (SLYVQQLKI; listed as Homo sapiens) [compound 26]”, in the test with HLA-A*02:01, the Peptide exchange result is reported as ““++++” (>75% = ++++)”.

Take “13 (ITDIHIKY; listed as Homo sapiens) [compound 13]”: in the test with HLA-A*01:01, the Peptide exchange entry is given as ““++++” (>75% = ++++)”.

Turning to “192 (RSDPGGGGLAY; listed as Homo sapiens) [compound 192]”, the Peptide exchange entry with HLA-A*01:01 was ““+++” (>50 =+++)”.

As for “215 (KATGAATPK; listed as Homo sapiens) [compound 215]”, the Peptide exchange result in the test with HLA-A*03:01 is recorded as ““++” (>20% = ++)”.

“47 (SVLDLSVHK; listed as Homo sapiens) [compound 47]”: the Peptide exchange result with HLA-A*03:01 is reported as ““++” (>20% = ++)”.

As to “10 (YSDIGHLL; listed as Homo sapiens) [compound 10]”, in the test with HLA-A*01:01, the Peptide exchange entry is recorded as ““++” (>20% = ++)”.

“193 (LTDSEKGNSY; listed as Homo sapiens) [compound 193]”: in the test with HLA-A*01:01, the Peptide exchange entry is ““+++” (>50 =+++)”.

Regarding “209 (KTLPAMLGTGK; listed as Homo sapiens) [compound 209]”, the Peptide exchange result with HLA-A*03:01 is reported as ““++” (>20% = ++)”.

With “191 (ISEAGKDLLY; listed as Homo sapiens) [compound 191]”, the Peptide exchange entry with HLA-A*01:01 is ““+++” (>50 =+++)”.

With “220 (SISNLVFTY; listed as Homo sapiens) [compound 220]”, the Peptide exchange entry with HLA-A*03:01 is recorded as ““++” (>20% = ++)”.

Turning to “188 (YVDAGTPMY; listed as Homo sapiens) [compound 188]”, the Peptide exchange entry in the test with HLA-A*01:01 is ““+++” (>50 =+++)”.

As to “213 (RVYNIYIRR; listed as Homo sapiens) [compound 213]”, in the test with HLA-A*03:01, the Peptide exchange entry is ““++” (>20% = ++)”.

Consider “198 (KLLGYDVHV; listed as Homo sapiens) [compound 198]”, for which the Peptide exchange result in the test with HLA-A*02:01 was ““+++” (>50 = +++)”.

In the case of “44 (KVYDPVSEY; listed as Homo sapiens) [compound 44]”, the Peptide exchange entry with HLA-A*03:01 is ““++” (>20% = ++)”.

As to “21 (FLFDKLLLI; listed as Homo sapiens) [compound 21]”, the Peptide exchange result with HLA-A*02:01 is ““++++” (>75% = ++++)”.

“216 (RIKAPSRNTIQK; listed as Homo sapiens) [compound 216]”: the Peptide exchange entry with HLA-A*03:01 is reported as ““++” (>20% = ++)”.

On to “20 (FSLEDLVRI; listed as Homo sapiens) [compound 20]”, for which the Peptide exchange entry in the test with HLA-A*02:01 is ““++” (>20% = ++)”.

For “196 (FTDIDGQVY; listed as Homo sapiens) [compound 196]”, the Peptide exchange result with HLA-A*01:01 is ““+++” (>50 =+++)”.

In the case of “32 (KTSNIVKIK; listed as Homo sapiens) [compound 32]”, the Peptide exchange result with HLA-A*03:01 is on record as ““++” (>20% = ++)”.

Turning to “30 (RTYGFVLTF; listed as Homo sapiens) [compound 30]”, the Peptide exchange result in the test with HLA-A*03:01 is ““++” (>20% = ++)”.

As to “8 (STDSAGSSY; listed as Homo sapiens) [compound 8]”, the Peptide exchange entry with HLA-A*01:01 is ““++++” (>75% = ++++)”.

With “194 (YTDKKSIIY; listed as Homo sapiens) [compound 194]”, the Peptide exchange result with HLA-A*01:01 was ““+++” (>50 =+++)”.

In the case of “45 (VVFPFPVNK; listed as Homo sapiens) [compound 45]”, the Peptide exchange result with HLA-A*03:01 is listed as ““+++” (>50 = +++)”.

On to “195 (YSDKEFAGSY; listed as Homo sapiens) [compound 195]”, for which the Peptide exchange result in the test with HLA-A*01:01 is reported as ““++++” (>75% = ++++)”.

In the case of “22 (ILHAQTLKI; listed as Homo sapiens) [compound 22]”, the Peptide exchange entry in the test with HLA-A*02:01 is given as ““+++” (>50 = +++)”.

Regarding “12 (ATDIVDSQY; listed as Homo sapiens) [compound 12]”, the Peptide exchange entry with HLA-A*01:01 is given as ““+++” (>50 =+++)”.

On to “207 (KLSDNILKL; listed as Homo sapiens) [compound 207]”, for which, in the test with HLA-A*02:01, the Peptide exchange entry is reported as ““++++” (>75% = ++++)”.

For “217 (TTVPHVFSK; listed as Homo sapiens) [compound 217]”, the Peptide exchange result with HLA-A*03:01 is listed as ““++” (>20% = ++)”.

Take “48 (RIKPPGPTAVPK; listed as Homo sapiens) [compound 48]”: the Peptide exchange result with HLA-A*03:01 is recorded as ““+++” (>50 = +++)”.

As to “189 (VTEEPQRLFY; listed as Homo sapiens) [compound 189]”, the Peptide exchange result in the test with HLA-A*01:01 was ““++++” (>75% = ++++)”.

With “14 (TFDLTVVSY; listed as Homo sapiens) [compound 14]”, the Peptide exchange entry with HLA-A*01:01 was ““++” (>20% = ++)”.

As to “18 (YLLPSVVLL; listed as Homo sapiens) [compound 18]”, in the test with HLA-A*02:01, the Peptide exchange entry was ““++++” (>75% = ++++)”.

For “210 (RMYSQLKTLQK; listed as Homo sapiens) [compound 210]”, in the test with HLA-A*03:01, the Peptide exchange result was ““+++” (>50 = +++)”.

As for “51 (ASTTVLALK; listed as Homo sapiens) [compound 51]”, in the test with HLA-A*03:01, the Peptide exchange entry is recorded as ““++” (>20% = ++)”.

On to “3 (YINPAKLTPY; listed as Homo sapiens) [compound 3]”, for which, in the test with HLA-A*01:01, the Peptide exchange entry is listed as ““++” (>20% = ++)”.

With “42 (SVSSSTHFTR; listed as Homo sapiens) [compound 42]”, the Peptide exchange entry in the test with HLA-A*03:01 was ““++” (>20% = ++)”.

For “211 (ATYNKQPMYR; listed as Homo sapiens) [compound 211]”, in the test with HLA-A*03:01, the Peptide exchange entry is ““+++” (>50 = +++)”.

Turning to “15 (SVADIRNAY; listed as Homo sapiens) [compound 15]”, in the test with HLA-A*01:01, the Peptide exchange entry is ““++” (>20% = ++)”.

On to “23 (FAFSGVLRA; listed as Homo sapiens) [compound 23]”, for which the Peptide exchange entry with HLA-A*02:01 is on record as ““++” (>20% = ++)”.

For “25 (YLNEKSLQL; listed as Homo sapiens) [compound 25]”, in the test with HLA-A*02:01, the Peptide exchange result was ““++++” (>75% = ++++)”.

As to “197 (SLADVHIEV; listed as Homo sapiens) [compound 197]”, the Peptide exchange entry in the test with HLA-A*02:01 is recorded as ““++++” (>75% = ++++)”.

For the substance “36 (KAKAAAKPK; listed as Homo sapiens) [compound 36]”, the Peptide exchange entry with HLA-A*03:01 is on record as ““++” (>20% = ++)”.

As for “35 (ATKSPAKPK; listed as Homo sapiens) [compound 35]”, the Peptide exchange entry with HLA-A*03:01 was ““+++” (>50 = +++)”.

“33 (SVFEGDSIVLK; listed as Homo sapiens) [compound 33]”: the Peptide exchange result in the test with HLA-A*03:01 is given as ““++” (>20% = ++)”.

Take “11 (AAADHHSLY; listed as Homo sapiens) [compound 11]”: the Peptide exchange result in the test with HLA-A*01:01 is reported as ““+++” (>50 =+++)”.

On to “218 (RVLTGVFTK; listed as Homo sapiens) [compound 218]”, for which the Peptide exchange result with HLA-A*03:01 is ““++” (>20% = ++)”.

On to “4 (ALDQNKMHY; listed as Homo sapiens) [compound 4]”, for which, in the test with HLA-A*01:01, the Peptide exchange entry is ““+++” (>50 =+++)”.

For “28 (VILESIFLK; listed as Homo sapiens) [compound 28]”, the Peptide exchange entry in the test with HLA-A*03:01 was ““++” (>20% = ++)”.

In the case of “16 (WIGDKSFEY; listed as Homo sapiens) [compound 16]”, the Peptide exchange entry in the test with HLA-A*01:01 is reported as ““++” (>20% = ++)”.

“38 (KARKSAGAAK; listed as Homo sapiens) [compound 38]”: the Peptide exchange result in the test with HLA-A*03:01 was ““+++” (>50 = +++)”.

For the substance “46 (RVFPSPMRI; listed as Homo sapiens) [compound 46]”, the Peptide exchange entry with HLA-A*03:01 is given as ““++” (>20% = ++)”.

As for “7 (FMDSESFYY; listed as Homo sapiens) [compound 7]”, the Peptide exchange result in the test with HLA-A*01:01 is recorded as ““+” (>10% = +)”.

Turning to “43 (KLMETSMGF; listed as Homo sapiens) [compound 43]”, the Peptide exchange result with HLA-A*03:01 is on record as ““++” (>20% = ++)”.

As to “6 (VTEGVAQTSFY; listed as Homo sapiens) [compound 6]”, in the test with HLA-A*01:01, the Peptide exchange result was ““++++” (>75% = ++++)”.

Consider “214 (ATGAATPKK; listed as Homo sapiens) [compound 214]”, for which the Peptide exchange entry in the test with HLA-A*03:01 was ““+++” (>50 = +++)”.

With “221 (LLNRHILAH; listed as Homo sapiens) [compound 221]”, the Peptide exchange entry with HLA-A*03:01 is recorded as ““+++” (>50 = +++)”.

“212 (LLWHWDTTQSLK; listed as Homo sapiens) [compound 212]”: in the test with HLA-A*03:01, the Peptide exchange entry is given as ““+” (>10% = +)”.

With “40 (RSKEYIRKK; listed as Homo sapiens) [compound 40]”, the Peptide exchange entry with HLA-A*03:01 is given as ““+” (>10% = +)”.

On to “5 (GTDVLSTRY; listed as Homo sapiens) [compound 5]”, for which the Peptide exchange entry with HLA-A*01:01 was ““+++” (>50 =+++)”.

For the substance “34 (SVYSETSNMDK; listed as Homo sapiens) [compound 34]”, in the test with HLA-A*03:01, the Peptide exchange result is reported as ““+++” (>50 = +++)”.

Consider “9 (YSHPQYSSY; listed as Homo sapiens) [compound 9]”, for which the Peptide exchange entry with HLA-A*01:01 is ““++” (>20% = ++)”.

For the substance “208 (KLNPQQAPLY; listed as Homo sapiens) [compound 208]”, the Peptide exchange result in the test with HLA-A*03:01 is ““++” (>20% = ++)”.

The values are drawn from patent US11135246B2, “Peptides and combination of peptides for use in immunotherapy against leukemias and other cancers” (Immatics Biotechnologies GmbH, priority 2017, dated 2021).
